“Also recorded” adds a separate entry of the source. Ends that are not written are not given here.
Assays:
[1] = target: T1, Toll-Like Receptor 2 (Homo sapiens, UniProt O60603+Q15399); settings: Fisette et al., 2003; cited from earlier work
T1 construct: host or cells: epithelial cells

[2] = test system: SFV (A/New Calcdonia/20/99); test: Influenza-specific serum IgG ELISA after nasal instillation of SFV with Lip peptide MC58; type: in vivo, C57BL/6 mice; settings: 3 μg SFV + 10 μg peptide nasally Day 0 and Day 14, sera Day 28, versus SFV alone; FIG. 6
Method: On day 28, mice were euthanized and exsanguinated by cardiac puncture. Influenza-specific IgG levels were measured in sera collected at Day 28 by ELISA using (A/New Calcdonia/20/99) SFV as solid-phase antigen.

[3] = target: human TLR 1 and 2 (Homo sapiens, UniProt O60603+Q15399); test: NF-κB SEAP reporter assay in HEK293 cells expressing TLR 1 and 2; settings: TLR1/2-expressing HEK293 cells; 0, 0.01, 0.1, 1.0 μg; 5 hours exposure; FIG. 3; listed as Lip peptide lipidated MC58
Sequence of human TLR 1 and 2 (O60603 21-784): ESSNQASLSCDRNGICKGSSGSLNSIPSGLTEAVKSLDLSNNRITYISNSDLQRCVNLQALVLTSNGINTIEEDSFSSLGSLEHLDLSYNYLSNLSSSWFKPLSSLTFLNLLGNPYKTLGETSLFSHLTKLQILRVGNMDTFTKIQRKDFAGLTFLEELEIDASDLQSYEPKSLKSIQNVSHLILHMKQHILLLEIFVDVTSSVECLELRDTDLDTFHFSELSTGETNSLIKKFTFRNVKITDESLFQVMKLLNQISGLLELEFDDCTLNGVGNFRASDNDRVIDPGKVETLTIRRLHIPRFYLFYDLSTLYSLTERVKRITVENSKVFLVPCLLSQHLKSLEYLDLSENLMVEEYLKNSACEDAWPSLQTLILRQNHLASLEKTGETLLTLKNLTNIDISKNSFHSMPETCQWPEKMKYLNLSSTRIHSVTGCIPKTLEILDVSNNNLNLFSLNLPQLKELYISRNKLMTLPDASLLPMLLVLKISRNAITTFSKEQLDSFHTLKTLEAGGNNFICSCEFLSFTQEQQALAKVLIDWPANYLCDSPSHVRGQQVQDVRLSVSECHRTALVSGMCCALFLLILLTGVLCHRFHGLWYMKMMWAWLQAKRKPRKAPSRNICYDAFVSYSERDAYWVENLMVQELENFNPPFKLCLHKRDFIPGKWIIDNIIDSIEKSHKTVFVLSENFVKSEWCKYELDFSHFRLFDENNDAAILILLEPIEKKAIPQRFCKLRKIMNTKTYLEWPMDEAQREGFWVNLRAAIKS
Sequence of human TLR 1 and 2 (Q15399 25-786): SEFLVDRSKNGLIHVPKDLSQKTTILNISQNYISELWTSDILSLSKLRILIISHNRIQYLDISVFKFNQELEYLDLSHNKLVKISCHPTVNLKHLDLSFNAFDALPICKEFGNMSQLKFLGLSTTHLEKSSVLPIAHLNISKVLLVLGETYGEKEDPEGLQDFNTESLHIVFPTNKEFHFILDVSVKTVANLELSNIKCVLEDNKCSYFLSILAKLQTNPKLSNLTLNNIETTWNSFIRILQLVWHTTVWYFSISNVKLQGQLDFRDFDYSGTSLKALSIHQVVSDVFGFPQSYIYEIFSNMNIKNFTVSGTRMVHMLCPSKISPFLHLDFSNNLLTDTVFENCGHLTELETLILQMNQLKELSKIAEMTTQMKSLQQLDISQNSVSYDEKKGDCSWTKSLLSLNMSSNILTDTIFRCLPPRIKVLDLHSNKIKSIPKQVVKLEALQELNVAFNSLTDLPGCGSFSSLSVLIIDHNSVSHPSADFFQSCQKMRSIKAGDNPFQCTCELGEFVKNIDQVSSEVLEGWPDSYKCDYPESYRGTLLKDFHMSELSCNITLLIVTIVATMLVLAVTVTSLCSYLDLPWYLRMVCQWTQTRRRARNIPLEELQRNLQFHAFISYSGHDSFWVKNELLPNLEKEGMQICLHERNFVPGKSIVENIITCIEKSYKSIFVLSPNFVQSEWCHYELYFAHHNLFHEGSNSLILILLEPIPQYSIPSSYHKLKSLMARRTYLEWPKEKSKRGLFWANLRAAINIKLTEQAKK

[4] = test system: split-flu vaccine (SFV); type: in vivo, C57BL/6 mice; settings: 3 μg SFV + 0.35 μg or 1.0 μg Lip protein nasally Day 0 and Day 14, Day 28 sera, versus SFV alone; batch 1 and batch 2; FIG. 7 and 8
[5] = target: TLR4/MD2/CD14 (Homo sapiens, UniProt O00206); test: NF-κB SEAP reporter assay in HEK293 cells expressing TLR4/MD2/CD14; settings: FIG. 5
Sequence of TLR4/MD2/CD14 (O00206 24-839): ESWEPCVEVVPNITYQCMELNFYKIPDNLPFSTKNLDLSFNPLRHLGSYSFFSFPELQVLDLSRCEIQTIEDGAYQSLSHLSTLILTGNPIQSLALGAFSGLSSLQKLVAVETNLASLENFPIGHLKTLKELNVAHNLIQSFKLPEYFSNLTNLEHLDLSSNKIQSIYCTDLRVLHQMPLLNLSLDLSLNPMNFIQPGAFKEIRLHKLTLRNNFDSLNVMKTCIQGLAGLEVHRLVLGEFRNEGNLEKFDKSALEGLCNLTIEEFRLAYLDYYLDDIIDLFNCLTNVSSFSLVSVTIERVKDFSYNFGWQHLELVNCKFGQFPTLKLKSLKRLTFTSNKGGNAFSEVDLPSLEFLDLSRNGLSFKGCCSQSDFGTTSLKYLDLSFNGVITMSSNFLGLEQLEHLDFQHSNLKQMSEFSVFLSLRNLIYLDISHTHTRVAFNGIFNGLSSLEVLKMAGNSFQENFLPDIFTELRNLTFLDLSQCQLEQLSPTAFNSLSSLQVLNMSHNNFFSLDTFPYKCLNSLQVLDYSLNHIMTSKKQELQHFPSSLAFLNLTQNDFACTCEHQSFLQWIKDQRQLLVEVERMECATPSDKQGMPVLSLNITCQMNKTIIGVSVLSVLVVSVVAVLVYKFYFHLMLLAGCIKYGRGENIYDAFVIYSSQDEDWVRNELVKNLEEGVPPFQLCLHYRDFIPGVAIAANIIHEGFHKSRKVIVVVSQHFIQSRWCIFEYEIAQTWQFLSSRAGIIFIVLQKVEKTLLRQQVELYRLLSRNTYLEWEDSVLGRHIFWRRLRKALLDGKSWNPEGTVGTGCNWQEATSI
Sequence of TLR4/MD2/CD14 (Q9Y6Y9 19-160 partner): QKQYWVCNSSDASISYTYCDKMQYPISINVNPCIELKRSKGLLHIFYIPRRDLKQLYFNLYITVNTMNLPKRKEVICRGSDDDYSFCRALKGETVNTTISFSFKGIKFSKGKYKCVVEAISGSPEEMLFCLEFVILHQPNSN

T1 sequence (O60603 21-784, species assumed): as the sequence (O60603 21-784) above
T1 sequence (Q15399 25-786, species assumed): as the sequence (Q15399 25-786) above

Pam3Cys-GGEKAAEAPAAEAS [Lip peptide F62, triacylated Lip peptide from N. gonorrhoeae F62]
production of inflammatory cytokines [1]: can stimulate

Pam3Cys-GGEKAAEAPAAEAP [Lip peptide MC58]
serum influenza-specific IgG levels [2]: statistically significant higher levels | NF-κB activation (relative 650 nm optic density, SEAP) [3]: mainly TLR1 and 2 agonists

B1: Lip protein: Lip protein purified from Neisseria meningitidis (strain 8047) Proteosome preparation (protein)
chain: MKAYLALISAAVIGLAACSQEPAAPAAEATPAAEAPASEAPAAEAAPADAAEAPAAGNCAATVESNDNMQFNTKDIQVSKACKEFTITLKHTGTQPKTSMGHNIVIGKTEDMDGIFKDGVGAADTDYVKPDDARVVAHTKLIGGGEESSLTLDPAKLADGDYKFACTFPGHGALMNGKITLVD
modifications: N.meningitidis
notes: Lip protein purified from Neisseria meningitidis (strain 8047) Proteosome preparation
antigen-specific IgG levels in sera [4]: statistically significant (p<0.001 and p<0.01) higher levels; also recorded: significantly higher than the SFV alone | NF-κB activation [5]: no significant increase
